Measurements taken from patent publication US20100184636.

Target: endogenous raptor (UniProt Q8N122)
Sequence (Q8N122 whole entry, looked up): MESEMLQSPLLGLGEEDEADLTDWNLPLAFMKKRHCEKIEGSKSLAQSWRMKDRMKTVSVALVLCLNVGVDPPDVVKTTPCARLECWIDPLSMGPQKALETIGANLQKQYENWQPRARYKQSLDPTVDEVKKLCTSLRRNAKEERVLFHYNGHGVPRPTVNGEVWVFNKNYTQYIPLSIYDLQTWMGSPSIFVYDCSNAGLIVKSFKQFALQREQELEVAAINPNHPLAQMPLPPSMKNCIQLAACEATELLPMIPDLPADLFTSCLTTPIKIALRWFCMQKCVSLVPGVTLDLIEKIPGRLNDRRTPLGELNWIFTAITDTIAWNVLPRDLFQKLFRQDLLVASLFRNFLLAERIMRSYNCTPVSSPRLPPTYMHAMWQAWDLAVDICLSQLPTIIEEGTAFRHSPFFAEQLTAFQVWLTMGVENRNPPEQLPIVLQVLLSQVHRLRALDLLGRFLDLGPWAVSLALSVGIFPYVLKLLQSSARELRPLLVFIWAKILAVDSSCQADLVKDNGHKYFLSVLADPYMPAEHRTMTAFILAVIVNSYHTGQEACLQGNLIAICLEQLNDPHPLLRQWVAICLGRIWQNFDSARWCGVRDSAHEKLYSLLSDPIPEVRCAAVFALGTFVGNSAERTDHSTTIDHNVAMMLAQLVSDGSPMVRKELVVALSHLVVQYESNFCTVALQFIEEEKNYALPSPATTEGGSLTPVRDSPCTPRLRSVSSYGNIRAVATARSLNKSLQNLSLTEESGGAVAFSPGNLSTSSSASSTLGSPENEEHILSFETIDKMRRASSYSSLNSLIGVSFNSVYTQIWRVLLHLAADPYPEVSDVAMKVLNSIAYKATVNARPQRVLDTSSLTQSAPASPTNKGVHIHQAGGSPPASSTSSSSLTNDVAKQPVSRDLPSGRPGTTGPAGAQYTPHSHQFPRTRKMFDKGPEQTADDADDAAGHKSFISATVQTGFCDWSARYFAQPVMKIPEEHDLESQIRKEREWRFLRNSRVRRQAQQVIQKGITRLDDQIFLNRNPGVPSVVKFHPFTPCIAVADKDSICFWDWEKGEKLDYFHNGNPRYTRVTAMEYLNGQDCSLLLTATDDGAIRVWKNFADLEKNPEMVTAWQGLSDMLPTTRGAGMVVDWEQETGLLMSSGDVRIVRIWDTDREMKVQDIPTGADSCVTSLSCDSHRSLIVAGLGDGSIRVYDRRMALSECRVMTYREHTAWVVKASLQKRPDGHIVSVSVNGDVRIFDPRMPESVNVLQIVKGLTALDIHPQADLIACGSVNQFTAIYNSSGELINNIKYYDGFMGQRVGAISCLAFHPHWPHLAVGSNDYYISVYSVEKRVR

## phospholipase D2, wild type (PLD2^wt)
  exogenous PA-dependent phosphorylation of S6K1 (add-back): the exogenous PA-dependent phosphorylation of S6K1 was rescued by PLD2^wt and PLD2^K758R, but not by PLD2^F265A and PLD2^E266R
